In general, Kd refers to the equilibrium constant for the complex coming apart.

Experiment [1] has as its target Naegleria fowleri G protein α subunit Nf Gα3 (Naegleria fowleri). The experiment is described as follows: SPR; Proteon XPR36; ~5000 RU of His6-tagged Gα subunits immobilised on a nickel-NTA chip by covalent capture coupling; RGS domains injected as analyte at 20 μl/min; 50 mM Hepes pH 7.4, 150 mM NaCl, 0.05% NP-40 alternative, 50 μM EDTA, 1 mM MgCl2; Gα in the AMF state (100 μM GDP, 20 mM NaF, 30 μM AlCl3); equilibrium binding analysis. Background: In SPR one partner is held on a chip, and binding of the other changes the refractive index at the surface.

In experiment [2] the target is Naegleria fowleri G protein α subunit Nf Gα2 (Naegleria fowleri). The experiment is described as above.
Experiment [3] concerns the target T1, Nf Gα5 (Naegleria fowleri, UniProt A0A6A5BQC6).
T1 construct: gene FDP41_003899; N-terminal TEV-cleavable His6 tag; E. coli
T1 sequence (A0A6A5BQC6 57-394 limits assumed): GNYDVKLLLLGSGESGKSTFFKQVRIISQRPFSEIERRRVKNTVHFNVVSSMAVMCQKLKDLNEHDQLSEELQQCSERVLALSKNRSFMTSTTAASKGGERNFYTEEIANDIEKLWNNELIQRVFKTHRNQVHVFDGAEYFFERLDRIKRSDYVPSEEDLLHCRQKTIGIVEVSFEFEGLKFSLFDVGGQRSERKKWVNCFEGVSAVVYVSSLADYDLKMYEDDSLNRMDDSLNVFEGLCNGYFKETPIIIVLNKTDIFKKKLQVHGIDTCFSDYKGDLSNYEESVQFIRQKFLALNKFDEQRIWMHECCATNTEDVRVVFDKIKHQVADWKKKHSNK
The experiment is described as follows: intrinsic tryptophan fluorescence (activation). It is filed as binding. As to conditions: 0.5 μM protein, 1 μM nucleotide, 10 mM MgCl2, pH 7.5, 20 °C.

Experiment [4] has as its target T2, Nf Gα7 (Naegleria fowleri, UniProt A0A6I8WFP8).
T2 construct: gene NF0037180; N-terminal TEV-cleavable His6 tag; E. coli
T2 sequence (A0A6I8WFP8 1-321): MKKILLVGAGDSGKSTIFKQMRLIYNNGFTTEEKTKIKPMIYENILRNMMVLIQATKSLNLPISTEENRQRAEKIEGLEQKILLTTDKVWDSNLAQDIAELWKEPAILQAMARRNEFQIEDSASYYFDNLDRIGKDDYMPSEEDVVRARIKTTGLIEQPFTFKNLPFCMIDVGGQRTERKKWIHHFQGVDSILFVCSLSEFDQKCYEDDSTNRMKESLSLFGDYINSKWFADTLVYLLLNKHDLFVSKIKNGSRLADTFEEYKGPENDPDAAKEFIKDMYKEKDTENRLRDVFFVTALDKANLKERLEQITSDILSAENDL
The experiment is described as follows: intrinsic tryptophan fluorescence (activation). It is filed as binding. As to conditions: 0.5 μM protein, 1 μM nucleotide, 10 mM MgCl2, pH 7.5, 20 °C.

For experiment [5], the target named is T1, Nf Gα5. The experiment is described as follows: intrinsic tryptophan fluorescence (activation, return after hydrolysis). As to conditions: 0.5 μM protein, 1 μM nucleotide, 10 mM MgCl2, pH 7.5, 20 °C. It is filed as biochemical.

On to “RGS domain of Naegleria fowleri Nf RGS-RhoGEF (domain or fragment)”, for which the Kd in experiment [1] was determined as 3.3 µM; in experiment [2], 2.4 µM.

On to “RGS domain of Naegleria fowleri seven-transmembrane RGS protein Nf 7TM RGS2 (domain or fragment)”, for which the figures for the Kd in experiment [1] and in experiment [2] were 0.55 µM and 0.63 µM, respectively.

Turning to `Nc1nc2c(ncn2[C@@H]2O[C@H](COP(=O)(O)OP(=O)(O)NP(=O)(O)O)[C@@H](O)[C@H]2O)c(=O)[nH]1` [GppNHp], the “intrinsic tryptophan fluorescence (activation)” value in experiment [3] and in experiment [4] was “achieved the active conformation in the presence of either GppNHp or GTP” throughout.

The compound “RGS domain of Naegleria fowleri seven-transmembrane RGS protein Nf 7TM RGS4 (domain or fragment)” yielded a Kd in experiment [1] of 1.8 µM.

Regarding `Nc1nc2c(ncn2[C@@H]2O[C@H](COP(=O)(O)OP(=O)(O)OP(=O)(O)O)[C@@H](O)[C@H]2O)c(=O)[nH]1` [GTP], the “intrinsic tryptophan fluorescence (activation)” value in experiment [4] is recorded as “achieved the active conformation in the presence of either GppNHp or GTP”. In experiment [5], the “intrinsic tryptophan fluorescence (activation, return after hydrolysis)” value is “returned slowly to near-baseline levels after multiple rounds of hydrolysis and exhaustion of available GTP”.

For the origin of these results see publication PMC9283941, “Self-activating G protein α subunits engage seven-transmembrane regulator of G protein signaling (RGS) proteins and a Rho guanine nucleotide exchange factor effector in the amoeba Naegleria fowleri” (The Journal of Biological Chemistry, 2022).
